According to paper doi:10.1101/2022.11.21.517443 (bioRxiv, 2022):
“And” between values parts separate entries of the source, which are not always exact repeats. Equal entries are not always repeated.

Molecular target: the molecule itself
Assay: single-particle cryo-EM 2D classification

B1: Escherichia coli glutamine synthetase (enzyme, UniProt P0A9C5 1-469, looked up)
chain: MSAEHVLTMLNEHEVKFVDLRFTDTKGKEQHVTIPAHQVNAEFFEEGKMFDGSSIGGWKGINESDMVLMPDASTAVIDPFFADSTLIIRCDILEPGTLQGYDRDPRSIAKRAEDYLRSTGIADTVLFGPEPEFFLFDDIRFGSSISGSHVAIDDIEGAWNSSTQYEGGNKGHRPAVKGGYFPVPPVDSAQDIRSEMCLVMEQMGLVVEAHHHEVATAGQNEVATRFNTMTKKADEIQIYKYVVHNVAHRFGKTATFMPKPMFGDNGSGMHCHMSLSKNGVNLFAGDKYAGLSEQALYYIGGVIKHAKAINALANPTTNSYKRLVPGYEAPVMLAYSARNRSASIRIPVVSSPKARRIEVRFPDPAANPYLCFAALLMAGLDGIKNKIHPGEAMDKNLYDLPPEEAKEIPQVAGSLEEALNELDLDREFLKAGGVFTDEAIDAYIALRREEDDRVRMTPHPVEFELYYSV
Q: With B1 as the protein, how does the “stoichiometry N” value read?
A: Its value is 10 subunits and 8 subunits.
